Numbering of substitutions follows the chain as printed. Numbers in names are those of the source. Where “and” joins values, the source holds several entries; their conditions need not be identical. Equal values may be shown once.
B1: BCH domain of S. pombe p50RhoGAP, wild type (YBCH 1-156 a.a) (domain or fragment, UniProt Q9P3B1 1-156, looked up)
chain: MEHDLERLCFIGGYDNDNDKVIVVVTKNLELFKKYDDINLIKEAYNHVHKLIQKDERYTAVFFAHDSTVFSYLGLSLKAYYGMDYYLHKNVKAVYVIHTDWMSKVAIRTLLSIASPKFTRKFRYLNSISDLNKYIPLSHLKLPPIVYEFDRNVEPA
notes: S. pombe homolog of p50RhoGAP (SPAC1565.02c protein), BCH domain, residues 1-156; The methods tell cloning, expression and purification only for the P116A mutant (parent construct (His)6-SlyD YBCH in pET32a); also called WT YBCH; yeast BCH
B2: P116A mutant of the BCH domain of S. pombe p50RhoGAP (YBCH 1-156 a.a) (domain or fragment, UniProt Q9P3B1 1-156, looked up)
chain: B1 chain with P116A
notes: S. pombe homolog of p50RhoGAP (SPAC1565.02c protein), BCH domain, residues 1-156, Pro116 to Ala; SlyD tag cleaved with PreScission protease; also called P116A-YBCH; YBCH P116A; source: E. coli BL21 (DE3), purified (Ni-NTA, cation exchange, gel filtration)

Target: the molecule itself
Test: AUC; sedimentation velocity, 2.4 mg/ml, absorbance at 280 nm, 40,000 rpm, 24 °C, analysed with Sedfit

Protein | stoichiometry N
B1 | 2
B2 | 2 and 4

— article PMC11090974, “Structural basis for the distinct roles of non-conserved Pro116 and conserved Tyr124 of BCH domain of yeast p50RhoGAP” (Cellular and Molecular Life Sciences: CMLS, 2024)
